Values belong to the binder of their own block, whether it stands above or below them.
Experiments:
[1] = biological target: T1, P606A peptide (HER2 603-622 with P606A) (human); test: SPR Biacore, mAb on chip, peptide analyte, 1:1 fit;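 further: binding measured at 25 °C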
T1 peptide: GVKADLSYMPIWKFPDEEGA

[2] = biological target: T2, S609A peptide (HER2 603-622 with S609A) (human); test: SPR Biacore, mAb on chip, peptide analyte, 1:1 fit;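 further: binding measured at 25 °C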
T2 peptide: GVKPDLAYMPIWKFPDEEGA

[3] = biological target: T3, Y610A peptide (HER2 603-622 with Y610A) (human); test: SPR Biacore, mAb on chip, peptide analyte, 1:1 fit;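 further: binding measured at 25 °C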
T3 peptide: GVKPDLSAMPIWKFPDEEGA

[4] = biological target: T4, M611A peptide (HER2 603-622 with M611A) (human); test: SPR Biacore, mAb on chip, peptide analyte, 1:1 fit;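 further: binding measured at 25 °C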
T4 peptide: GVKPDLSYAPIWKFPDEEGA

[5] = biological target: T5, P612A peptide (HER2 603-622 with P612A) (human); test: SPR Biacore, mAb on chip, peptide analyte, 1:1 fit;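 further: binding measured at 25 °C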
T5 peptide: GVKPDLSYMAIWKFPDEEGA

[6] = biological target: T6, P617A peptide (HER2 603-622 with P617A) (human); test: SPR Biacore, mAb on chip, peptide analyte, 1:1 fit;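 further: binding measured at 25 °C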
T6 peptide: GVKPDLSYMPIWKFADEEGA

[7] = biological target: T7, E619A peptide (HER2 603-622 with E619A) (human); test: SPR Biacore, mAb on chip, peptide analyte, 1:1 fit
T7 peptide: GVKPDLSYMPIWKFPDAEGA

[8] = biological target: T8, A622G peptide (HER2 603-622 with A622G) (human); test: SPR Biacore, mAb on chip, peptide analyte, 1:1 fit
T8 peptide: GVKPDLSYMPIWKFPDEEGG

HER2 peptide p614-621 = biological target: T9, HER2 peptide p614-621 (human); test: SPR Biacore, mAb on chip, peptide analyte, equilibrium analysis
T9 peptide: WKFPDEEG

HER2 peptide p613-622 = biological target: T10, HER2 peptide p613-622 (human); test: as above
T10 peptide: IWKFPDEEGA

[9] = biological target: T11, HER2 peptide p603-622 (amino acids 603 to 622 of human HER2) (human); test: SPR Biacore, mAb on chip, peptide analyte, 1:1 fit; Table 2 (deletion mutants series)
T11 construct: Synthetic peptide; also called wild-type HER2 peptide
T11 peptide: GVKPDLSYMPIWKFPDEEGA

[10] = biological target: T12, W614A peptide (HER2 603-622 with W614A) (human); test: SPR Biacore, mAb on chip, peptide analyte (ka N.D.)
T12 peptide: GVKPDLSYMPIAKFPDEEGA

[11] = biological target: T13, HER2-F616A expressed on CHO-K1 cells (human, UniProt P04626 23-1255); test: flow cytometry on CHO-K1 cells expressing HER2-F616A
T13 construct: also called F616A point mutant; not shown: PA tag at the N terminus; RAP tag and MAP tag at the C terminus

[12] = biological target: T14, HER2-K615A expressed on CHO-K1 cells (human, UniProt P04626 23-1255); test: flow cytometry on CHO-K1 cells expressing HER2-K615A
T14 construct: also called K615A point mutant; not shown: PA tag at the N terminus; RAP tag and MAP tag at the C terminus

[13] = biological target: T12, W614A peptide (HER2 603-622 with W614A); test: SPR Biacore, mAb on chip, peptide analyte, equilibrium analysis (ka N.D.)

- Kd [1]: 0.0176 µM
- koff [1]: 0.00578 s⁻¹
- kon [1]: 329000 M⁻¹ s⁻¹
- Kd [2]: 0.0332 µM
- koff [2]: 0.00659 s⁻¹
- kon [2]: 199000 M⁻¹ s⁻¹
- Kd [3]: 0.0267 µM
- koff [3]: 0.00603 s⁻¹
- kon [3]: 226000 M⁻¹ s⁻¹
- Kd [4]: 0.0341 µM
- koff [4]: 0.00774 s⁻¹
- kon [4]: 227000 M⁻¹ s⁻¹
- Kd [5]: 0.0468 µM
- koff [5]: 0.0125 s⁻¹
- kon [5]: 267000 M⁻¹ s⁻¹
- Kd [6]: 0.0439 µM
- koff [6]: 0.00716 s⁻¹
- kon [6]: 163000 M⁻¹ s⁻¹
- Kd [7]: 0.0662 µM
- koff [7]: 0.0111 s⁻¹
- kon [7]: 168000 M⁻¹ s⁻¹
- Kd [8]: 0.0155 µM
- koff [8]: 0.00567 s⁻¹
- kon [8]: 366000 M⁻¹ s⁻¹
- Kd (HER2 peptide p614-621): 229 µM
- Kd (HER2 peptide p613-622): 127 µM
- kon [9]: 234000 M⁻¹ s⁻¹
B1: H2Mab-214 antibody (antibody, V domains shown)
VH: QVTLKESGPGILQPSQTLSLTCSFSGFSLSTSGMGVSWIRQPSGKGLEWLAHIFWDDDKRYNPSLKSRLTISKDTSRNKVFLKITSVDTADTATYYCARRVVATDWYFDVWGAGTTVTVSS
VL: DIVLTQSPASLAVSLGQRATISCRASESVEYYGTTLMQWYQQKPGQPPKLLIYAASKVESGVPARFSGSGSGTDFSLNIHPVEEDDVAMYFCQQSRKVPLTFGAGTKLELKR
notes: Mouse monoclonal from a hybridoma (immunogen HER2ec made in LN229 cells); also called antibody of the present invention

- koff [10]: 0.00438 s⁻¹
- binding result [11]: binds
- binding result [12]: binds
- Kd [13]: 1050 µM
B2: H2Mab-250 antibody (antibody, V domains shown)
VH: EVQLVESGGGLVQPGGSLKLSCAASGFTFSNYGMSWVRQTPDRRLELVATINNNGGGTYYPDSVKGRFTISRDNAKNTLYLQMSSLKSEDTAMYYCTSPGLLWDAWGAGTTVTVSS
VL: not shown
notes: as for B1
